These results are taken from patent publication US6391571.

In assay [1] the target is monobiotinylated Fab' antibody fragment. The assay can be described thus: BIAcore SPR, mutein immobilized on CM5 chip, Fab' at 12.5-400 nmol/l, 25 C. Background: SPR reads the build-up and loss of mass on a sensor chip optically.
For assay [2] the target is unchanged. Put plainly: BIAcore SPR, mutein immobilized on CM5 chip, Fab' at 12.5-400 nmol/l, 25 C; first of 2 product lots.
Assay [3] shares this target. The assay can be described thus: BIAcore SPR, mutein immobilized on CM5 chip, Fab' at 12.5-400 nmol/l, 25 C; second of 2 product lots.
The target is the same in assay [4]. Put plainly: BIAcore SPR, mutein-thermo-BSA conjugate immobilized on CM5 chip, Fab' at 12.5-400 nmol/l, 25 C.
For assay [5] the target is unchanged. Put plainly: BIAcore SPR, streptavidin immobilized on CM5 chip, Fab' at 12.5-400 nmol/l, 25 C.

The term koff denotes the rate constant with which the complex falls apart. Higher therefore signals fast dissociation. One may read the kon as the rate constant with which the complex forms. A higher kon goes with fast association.

core streptavidin (wild type streptavidin), sequence (chain): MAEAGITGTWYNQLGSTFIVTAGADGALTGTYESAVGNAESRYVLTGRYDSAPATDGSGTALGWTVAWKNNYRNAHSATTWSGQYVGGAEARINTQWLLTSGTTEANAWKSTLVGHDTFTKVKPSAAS
SA-Ser27Arg/Ser45Arg TBSA conjugate, sequence (P02769 25-607, change not shown): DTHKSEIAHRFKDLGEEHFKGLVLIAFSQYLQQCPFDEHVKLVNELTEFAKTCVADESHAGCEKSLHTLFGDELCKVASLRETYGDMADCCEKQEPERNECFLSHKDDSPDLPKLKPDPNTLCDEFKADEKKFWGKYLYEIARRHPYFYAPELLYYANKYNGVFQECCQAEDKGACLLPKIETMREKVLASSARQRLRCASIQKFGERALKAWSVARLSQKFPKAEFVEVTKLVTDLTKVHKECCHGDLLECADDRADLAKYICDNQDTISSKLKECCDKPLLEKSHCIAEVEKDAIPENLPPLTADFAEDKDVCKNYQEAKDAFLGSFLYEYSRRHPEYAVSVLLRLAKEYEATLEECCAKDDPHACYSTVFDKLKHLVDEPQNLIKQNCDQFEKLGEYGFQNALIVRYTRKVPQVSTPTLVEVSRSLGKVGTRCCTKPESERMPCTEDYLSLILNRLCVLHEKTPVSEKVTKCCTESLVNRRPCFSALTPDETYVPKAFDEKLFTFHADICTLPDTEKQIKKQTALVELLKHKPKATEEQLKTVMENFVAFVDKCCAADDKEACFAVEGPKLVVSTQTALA

Regarding SA-Leu25Trp/Ser45Arg, in assay [1], the Ka was found to be 3.6e+08 M⁻¹, the koff came to 0.00022 s⁻¹, the on-rate constant (kon) came out at 79000 M⁻¹ s⁻¹ and the t/2 diss stood at 51.8 min.

In the case of SA-Leu25Trp/Ser45Trp/Leu110Trp, in assay [1], the Ka stood at 7e+07 M⁻¹, the off-rate constant (koff) worked out at 0.00087 s⁻¹, the kon was 49000 M⁻¹ s⁻¹ and the t/2 diss came to 13.4 min.

Take SA-Leu25Trp/Ser45Tyr/Leu110Trp: in assay [1], the Ka came to 4.6e+07 M⁻¹, the koff turned out to be 0.0013 s⁻¹, the on-rate (kon) was found to be 54000 M⁻¹ s⁻¹ and the t/2 diss is 8.7 min.

In assay [2], SA-Ser27Arg/Ser45Arg had a Ka of 4.2e+07 M⁻¹, a kon of 130000 M⁻¹ s⁻¹ and a t/2 diss of 3.7 min. For the same substance, in assay [3], the Ka was found to be 2.1e+07 M⁻¹, the off-rate (koff) worked out at 0.0041 s⁻¹, the on-rate (kon) came out at 85000 M⁻¹ s⁻¹ and the t/2 diss is 2.8 min.

With “SA-Ser27Arg/Ser45Arg TBSA conjugate (from UniProt P02769 25-607)”, in assay [4], the Ka was determined as 3.3e+07 M⁻¹, the off-rate constant (koff) was determined as 0.003 s⁻¹, the on-rate (kon) was found to be 100000 M⁻¹ s⁻¹ and the t/2 diss worked out at 3.9 min.

On to SA-Ser27Arg/Ser45Arg/Leu110Trp, for which, in assay [1], the Ka is 7.7e+06 M⁻¹, the dissociation rate constant (koff) turned out to be 0.0059 s⁻¹, the on-rate constant (kon) turned out to be 45000 M⁻¹ s⁻¹ and the t/2 diss amounted to 2 min.

As to SA-Ser27Arg/Ser45Arg/Trp120Ala, in assay [1], the Ka was 2e+07 M⁻¹, the koff was 0.0052 s⁻¹, the kon turned out to be 100000 M⁻¹ s⁻¹ and the t/2 diss was 2.2 min.

Regarding SA-Ser45Trp/Leu110Trp, in assay [1], the Ka is 6.1e+08 M⁻¹, the koff was determined as 0.00033 s⁻¹, the kon is 140000 M⁻¹ s⁻¹ and the t/2 diss stood at 40.8 min.

SA-Ser45Tyr/Leu110Trp: in assay [1], the Ka amounted to 2.7e+08 M⁻¹, the koff was found to be 0.00054 s⁻¹, the on-rate constant (kon) is 130000 M⁻¹ s⁻¹ and the t/2 diss came out at 22.6 min.

With SA-Trp120Ala, in assay [1], the Ka is 2.9e+08 M⁻¹, the dissociation rate constant (koff) is 0.00023 s⁻¹, the on-rate (kon) was 67000 M⁻¹ s⁻¹ and the t/2 diss was 49.4 min.

In assay [5], “core streptavidin (wild type streptavidin)” registered a Ka above 1e+10 M⁻¹, a koff below 1e-05 s⁻¹, a kon of 220000 M⁻¹ s⁻¹ and a t/2 diss above 20 h.
